Earlier results in patent US8791066B2 (Novo Nordisk A/S, priority 2004, dated 2014).

GLP-1(7-36)amide
time until peak concentrations return to baseline / cleared from the circulation (administered subcutaneously): ≤ 90 min | time to complete clearance (in vivo): 12 to 13 min
